Reference: paper PMC9299196, “Profiling the specificity of clonally expanded plasma cells during chronic viral infection by single‐cell analysis” (European Journal of Immunology, 2021)
Like-named read-outs stand apart in the source and are kept apart here.

T1: LCMV clone 13 nucleocapsid protein (NP), purified recombinant (Lymphocytic choriomeningitis virus …, UniProt P09992 1-558)
T1 chain: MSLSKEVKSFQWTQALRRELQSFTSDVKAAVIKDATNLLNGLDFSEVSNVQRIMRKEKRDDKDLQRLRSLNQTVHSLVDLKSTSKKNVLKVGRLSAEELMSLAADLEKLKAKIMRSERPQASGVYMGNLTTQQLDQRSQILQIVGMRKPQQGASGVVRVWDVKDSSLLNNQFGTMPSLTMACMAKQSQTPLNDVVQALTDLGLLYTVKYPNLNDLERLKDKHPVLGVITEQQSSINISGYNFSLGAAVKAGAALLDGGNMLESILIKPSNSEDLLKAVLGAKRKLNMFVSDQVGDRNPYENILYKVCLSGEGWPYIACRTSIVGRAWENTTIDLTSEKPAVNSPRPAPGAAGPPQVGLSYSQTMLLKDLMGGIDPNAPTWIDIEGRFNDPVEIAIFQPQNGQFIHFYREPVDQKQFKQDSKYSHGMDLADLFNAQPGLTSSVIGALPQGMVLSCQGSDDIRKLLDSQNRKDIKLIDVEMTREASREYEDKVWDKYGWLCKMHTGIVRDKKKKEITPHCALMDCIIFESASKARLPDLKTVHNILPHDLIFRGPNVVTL


Legend:
[1] = biological target: T2, LCMV clone 13 nucleocapsid protein (NP), purified recombinant (LCMV clone 13 (stand-in: strain …, UniProt P09992, strain))
[2] = biological target: T2, LCMV clone 13 nucleocapsid protein …; assay: ELISA; conditions: one partner purified
[3] = biological target: T1, LCMV clone 13 nucleocapsid protein …; assay: BLI

Binder	binding result [1]	binding result [2]	Kd [3] [nM]
Rank2.4 (antibody, V domains shown) VH: EVQLQQSGPELVKPGASVKMSCKASGYTFTDYNMHWVKQSHGKSLEWFGYIDPNNGGIRYNQLFKGKATLTVNKTSRIAYMELRSLTSEDSAVYYCAREGGYWYFDVWGTGTTVIVSS VL: DIVMTQSHKFKSTPVGDRVSITCKASQDVSTAVAWYQQKPGQSPKLLIYWASTRHTGVPDRFTGSGSGTDYTLTISSVQAEDLALYYCQQHYSTPFTFGSGTKLEIK	binds		
NP-specific, second most expanded IgG clone, most expanded antibody variant (antibody, V domains shown, also called second most expanded clone; previously tested variant) VH: EVQLQQSGPELVKPGASVKMSCKASGYTFTDYNMHWVKQSHGKSLEWIGYINPNNGGTSYNQKFKGKATLTVNKSSSTAYMELRSLTSEDSAVYYCAREGGYWYFDVWGTGTTVTVSS VL: DIVMTQSHKFMSTSVGDRVSITCKASQDVSTAVAWYQQKPGQSPKLLIYWASTRHTGVPDRFTGSGSGTDYTLTISSVQAEDLALYYCQQHYSTPFTFGSGTKLEIK		binds	470
third additionally expressed variant of the second most expanded IgG clone (single-reactive) (antibody, V domains shown, also called one of the three tested variants; single-reactive antibody) VH: EVQLQQSGPELVKPGASVKMSCKASGYTFIDYNMHWVKQSHGKSLEWIGYINPNNGGTNYNQKFKGKATLTVNKSSSTAYMELRSLTSEDSAVYYCAREGGYWYFDVWGTGTTVTVSS VL: DIVMTQSHKFMSTSVGDRVSITCKASQDVSTAVAWYQQKPGQSPKLLIYWASTRHTGVPDRFTGSGSGTDYTLTISSVQAEDLALYYCQQHYSTPFTFGSGTELEIK		binds	370
Rank2.5 (antibody, V domains shown) VH: EVQLQQSGPELVKPGASVKMSCKASGYTFTDYNMHWVKQSHGKSLEWIGYINPNNGGSRYNQKFKGKATLTGNKSSSTAYMELRSLTSEDSAVYYCAREGGYWYFDVWGTGTTVTVSS VL: DIVMTQSHKFMSTSVGDRVSITCKASQDVSTAIAWYQQKPGQSPKLLIYWASTRHTGVPDRFTGSGSGTDYTLTISSVQAEDLALYYCQQHYSTPFTFGSGTKLEIK	binds		
NP-specific IgG clone other than the second most expanded clone (antibody, V domains shown, also called one of the two NP-specific clones) VH: QVQLQQSDAELVKPGASVKISCKVSGYTFTDHTIHWMKQRPEQGLEWIGYIYPRDGSTKYNEKFKGKATLTADKSSSTAYMQLNSLTSEDSAVYFCARGGYYGFYYFDYWGQGTTLTVSS VL: DIVLTQSPASLAVSLGQRATISCRASESVEYYGTSLMQWYQQKPGQPPKLLIYAASNVESGVPARFSGSGSGTDFSLNIHPVEEDDIAMYFCQQSWKVPYTFGGGTKLEIK		binds	
